# According to patent publication US7999070B2, “Process for screening of a binding peptide specific for specific RNA and RNA binding peptides therefrom” (priority 2005, dated 2011):
# pKd: −log10 of the molar value. Where no end group is shown, it is not given here.
# Columns and labels:
# [1] = Circular dichroism (CD) of the selected peptide, percentage of alpha-helix; type: physicochemical; settings: for degree of alpha-helices (percentage of alpha-helix, fn): CD at 20° C., 222 nm; for degree of alpha-helices, comparison with Rev peptide (number in parenthesis): relative to Rev peptide (natural RRE RNA binding peptide)
# Description: CD was measured at 20° C. by using JASCO model J715 spectropolarimeter. Scanning of 190-260 nm wave length was performed three times with 1 nm of bandwidth, 0.5 nm of datapitch and 100 nm/min speed. The results of the scanning were averaged to obtain CD data. Background spectrum was measured to correct the basic spectrum, and CD signals were converted into mean residue ellipticity [Q]. The percentage of alpha-helix (fn) is calculated by the following formula. [Q]=Qobs[MRW/(101c)]
# MRW=mean residue weight (molecular weight is divided by the number of peptide bond), I=length of passway (cm), C=concentration (mg/mL). fn=([Q]222−[Q]coil)/([Q]helix−[Q]coil)
# [Q]222=mean residue ellipticity (deg cm2 mol−1) at 222 nm, [Q]helix=ellipticity of authentic helical peptide, [Q]coil=ellipticity of authentic random coil peptide, n=number of amino acid, t=° C.
# TAR RNA = experiment: Binding capacity to TAR RNA by fluorescence anisotropy
# Description: (§1) The detailed investigation on the specificity of peptide 16 (SEQ. ID. No 16) was not performed in the present invention, however the binding capacity to TAR RNA and tRNA, general peptides having stem-loop, was tested by fluorescence anisotropy.
# tRNA = experiment: Binding capacity to tRNA by fluorescence anisotropy
# Description: as §1
# RRE RNA of HIV-1 = experiment: Binding capacity of peptide to RRE RNA, fluorescence anisotropy in competition with CRP probe
# Description: 100 ml of RRE RNA solution was prepared at the concentration of […], which stood at 65° C. for 10 minutes. Then, the solution was cooled down slowly at room temperature to induce folding. Peptide solution was prepared respectively at the concentration of […] and 1.0 mM, and both of them were maintained at 0° C. […] CRP (5-carboxytetramethylrhodamine labeled paromomycin) was prepared as a probe. Buffer solution was prepared by mixing 140 mM NaCl, 5 mM KCl, 1 mM MgCl2 and 20 mM HEPES (N-2-Hydroxyethylpiperazine-N′-2-Ethanesulfonic Acid, pH 7.4). Fluorescence anisotropy was measured with AMINCO-Bowman Series Luminescence Spectrometer at 20° C. 10 nM CRP was added to […] of buffer solution, to which RRE RNA was added in order to combine CRP with RNA. At that time, anisotropy was increased. Thereafter, peptide competitively binding to CRP was added and the changes of anisotropy were measured. The binding capacity to RRE RNA of the peptide was determined by the KaleidaGraph as follows; [Peptide]=Kd(Amax−A)/[Kd(A−A0)+1]*[RNA]−Kd(A−A0)/(Amax−A)[CRP]0(A−A0)/(Amax−A0)
# [Peptide] indicates the concentration of the peptide, [RNA] indicates the concentration of RNA and [CRP] indicates the concentration of CRP. A is the value of fluorescence anisotropy of a sample, Amax is the value of totally bound tracer and A0 is the value of totally free tracer.
Substance,"degree of alpha-helices (percentage of alpha-helix, fn) [1]","degree of alpha-helices, comparison with Rev peptide (number in parenthesis) [1]",binding capacity to TAR RNA (TAR RNA),binding capacity to tRNA (tRNA),pKd (RRE RNA of HIV-1)
"LKK*LLKLLKKLLKLKG (LKK(dimethyl)LLKLLKKLLKLKG-NH2) [peptide 3, K* is dimethylated lysine]",4.9,0.72,,,
"LKKLLKLLK*KLLK*LKG (LKKLLKLLK(dimethyl)KLLK(dimethyl)LKG-NH2) [peptide 25, K* is dimethylated lysine]",6.6,1.0,,,
"LK*KLLKLLK*KLLK*LKG (LK(dimethyl)KLLKLLK(dimethyl)KLLK(dimethyl)LKG-NH2) [peptide 33, K* is dimethylated lysine]",7.5,1.1,,,
"LKK*LLKLLKKLLK*LKG (LKK(dimethyl)LLKLLKKLLK(dimethyl)LKG-NH2) [peptide 18, K* is dimethylated lysine]",4.9,0.71,,,
"LKK*LLKLLK*KLLKLKG (LKK(dimethyl)LLKLLK(dimethyl)KLLKLKG-NH2) [peptide 16, K* is dimethylated lysine]",13,2.0,hundreds and tens,hundreds and tens,> 9.00
"LKKLLKLLKKLLK*LKG (LKKLLKLLKKLLK(dimethyl)LKG-NH2) [peptide 7, K* is dimethylated lysine]",2.7,0.40,,,
LKKLLKLLKKLLKLKG [peptide 1],15,2.2,,,
